Source: IntAct's records for PubMed 20228790

Biological target: PRKCB, P05771-1
Sequence (P05771 whole entry, looked up): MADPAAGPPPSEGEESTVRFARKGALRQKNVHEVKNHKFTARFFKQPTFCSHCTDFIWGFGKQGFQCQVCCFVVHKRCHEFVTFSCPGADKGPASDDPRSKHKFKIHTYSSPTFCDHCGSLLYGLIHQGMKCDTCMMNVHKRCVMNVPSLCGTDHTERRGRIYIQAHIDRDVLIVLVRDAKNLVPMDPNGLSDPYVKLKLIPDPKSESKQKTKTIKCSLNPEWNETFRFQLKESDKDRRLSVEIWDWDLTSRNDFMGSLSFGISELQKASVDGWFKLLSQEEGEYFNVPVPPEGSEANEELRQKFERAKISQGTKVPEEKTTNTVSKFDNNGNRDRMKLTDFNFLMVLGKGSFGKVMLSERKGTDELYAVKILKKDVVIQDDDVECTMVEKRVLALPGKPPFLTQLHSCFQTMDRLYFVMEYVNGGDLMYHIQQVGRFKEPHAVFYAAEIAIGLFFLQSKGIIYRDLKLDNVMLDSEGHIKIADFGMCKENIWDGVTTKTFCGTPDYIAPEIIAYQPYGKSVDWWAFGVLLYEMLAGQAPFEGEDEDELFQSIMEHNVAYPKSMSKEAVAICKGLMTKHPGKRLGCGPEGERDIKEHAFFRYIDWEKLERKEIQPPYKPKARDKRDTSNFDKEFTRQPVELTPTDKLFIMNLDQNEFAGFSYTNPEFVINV

effect of a mutation on the interaction: disrupting interaction
Substance: Histone H3.1 (Homo sapiens) (from UniProt P68431) T7A
